Results: US20240270846A1 (published 2024)

The binders below were run against T1, CD3 epsilon homodimer protein (UniProt P07766 23-126) (assay: SPR Biacore T200, CD3e homodimer on chip, antibody analyte;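 note: CD3 epsilon homodimer amine-coupled on CM4 sensor chip, antibodies injected as analyte at 25 °C in HBS-EP+, ratio ≥0.8 taken as binding retained versus unaltered parent antibody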).
T1 construct: Construct of the homodimer is not described; also called CD3 (CD3 epsilon)
T1 sequence (P07766 23-126): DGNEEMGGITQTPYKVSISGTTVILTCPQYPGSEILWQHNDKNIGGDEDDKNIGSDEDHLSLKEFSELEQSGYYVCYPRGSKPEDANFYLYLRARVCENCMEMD

Binder	ratio of amounts bound (altered form/GLS3000)
GLS3000 Y96E one-arm antibody (antibody, human IgG1, kappa, L234A L235A, N297A, name in Kabat numbering) light: DIVMTQSPLSLPVTPGEPASISCRSSQSLVHSNRNTYLHWYQQKPGQAPRLLIYKVSNRFSGVPDRFSGSGSGTDFTLKISRVEAEDVGVYYCGQGTQVPETFGQGTKLEIKRTVAAPSVFIFPPSDEQLKSGTASVVCLLNNFYPREAKVQWKVDNALQSGNSQESVTEQDSKDSTYSLSSTLTLSKADYEKHKVYACEVTHQGLSSPVTKSFNRGEC heavy: QVQLVESGGGVVQPGRSLRLSCAASGFTFSNAWMHWVRQAPGKGLEWVAQIKAKSNNYATYYAESVKGRFTISRDDSKNSLYLQMNSLKTEDTAVYYCRYVHYGAYYGVDAWGQGTTVTVSSASTKGPSVFPLAPSSKSTSGGTAALGCLVKDYFPEPVTVSWNSGALTSGVHTFPAVLQSSGLYSLSSVVTVPSSSLGTQTYICNVNHKPSNTKVDKKVEPKSCDKTHTCPPCPAPEAAGGPSVFLFPPKPKDTLMISRTPEVTCVVVDVSHEDPEVKFNWYVDGVEVHNAKTKPREEQYASTYRVVSVLTVLHQDWLNGKEYKCKVSNKALPAPIEKTISKAKGQPREPQVYTLPPSRCELTKNQVSLSCAVKGFYPSDIAVEWESNGQPENNYKTTPPVLDSDGSFFLVSKLTVDKSRWQQGNVFSCSVMHEALHNHYTQKSLSLSPDYKDDDDK EPKSSDKTHTCPPCPAPELLGGPSVFLFPPKPKDTLMISRTPEVTCVVVDVSHEDPEVKFNWYVDGVEVHNAKTKPREEQYNSTYRVVSVLTVLHQDWLNGKEYKCKVSNKALPAPIEKTISKAKGQPREPQVCTLPPSRDELTKNQVSLWCLVKGFYPSDIAVEWESNGQPENNYKTTPPVLDSDGSFFLYSKLTVDKSRWQQGNVFSCSVMHEALHNRYTQKSLSLSP	0.17
GLS3000 Y96L one-arm antibody (antibody, human IgG1, kappa, L234A L235A, N297A, name in Kabat numbering) light: DIVMTQSPLSLPVTPGEPASISCRSSQSLVHSNRNTYLHWYQQKPGQAPRLLIYKVSNRFSGVPDRFSGSGSGTDFTLKISRVEAEDVGVYYCGQGTQVPLTFGQGTKLEIKRTVAAPSVFIFPPSDEQLKSGTASVVCLLNNFYPREAKVQWKVDNALQSGNSQESVTEQDSKDSTYSLSSTLTLSKADYEKHKVYACEVTHQGLSSPVTKSFNRGEC heavy: QVQLVESGGGVVQPGRSLRLSCAASGFTFSNAWMHWVRQAPGKGLEWVAQIKAKSNNYATYYAESVKGRFTISRDDSKNSLYLQMNSLKTEDTAVYYCRYVHYGAYYGVDAWGQGTTVTVSSASTKGPSVFPLAPSSKSTSGGTAALGCLVKDYFPEPVTVSWNSGALTSGVHTFPAVLQSSGLYSLSSVVTVPSSSLGTQTYICNVNHKPSNTKVDKKVEPKSCDKTHTCPPCPAPEAAGGPSVFLFPPKPKDTLMISRTPEVTCVVVDVSHEDPEVKFNWYVDGVEVHNAKTKPREEQYASTYRVVSVLTVLHQDWLNGKEYKCKVSNKALPAPIEKTISKAKGQPREPQVYTLPPSRCELTKNQVSLSCAVKGFYPSDIAVEWESNGQPENNYKTTPPVLDSDGSFFLVSKLTVDKSRWQQGNVFSCSVMHEALHNHYTQKSLSLSPDYKDDDDK EPKSSDKTHTCPPCPAPELLGGPSVFLFPPKPKDTLMISRTPEVTCVVVDVSHEDPEVKFNWYVDGVEVHNAKTKPREEQYNSTYRVVSVLTVLHQDWLNGKEYKCKVSNKALPAPIEKTISKAKGQPREPQVCTLPPSRDELTKNQVSLWCLVKGFYPSDIAVEWESNGQPENNYKTTPPVLDSDGSFFLYSKLTVDKSRWQQGNVFSCSVMHEALHNRYTQKSLSLSP	0.32
GLS3000 Y96H one-arm antibody (antibody, human IgG1, kappa, L234A L235A, N297A, name in Kabat numbering) light: DIVMTQSPLSLPVTPGEPASISCRSSQSLVHSNRNTYLHWYQQKPGQAPRLLIYKVSNRFSGVPDRFSGSGSGTDFTLKISRVEAEDVGVYYCGQGTQVPHTFGQGTKLEIKRTVAAPSVFIFPPSDEQLKSGTASVVCLLNNFYPREAKVQWKVDNALQSGNSQESVTEQDSKDSTYSLSSTLTLSKADYEKHKVYACEVTHQGLSSPVTKSFNRGEC heavy: QVQLVESGGGVVQPGRSLRLSCAASGFTFSNAWMHWVRQAPGKGLEWVAQIKAKSNNYATYYAESVKGRFTISRDDSKNSLYLQMNSLKTEDTAVYYCRYVHYGAYYGVDAWGQGTTVTVSSASTKGPSVFPLAPSSKSTSGGTAALGCLVKDYFPEPVTVSWNSGALTSGVHTFPAVLQSSGLYSLSSVVTVPSSSLGTQTYICNVNHKPSNTKVDKKVEPKSCDKTHTCPPCPAPEAAGGPSVFLFPPKPKDTLMISRTPEVTCVVVDVSHEDPEVKFNWYVDGVEVHNAKTKPREEQYASTYRVVSVLTVLHQDWLNGKEYKCKVSNKALPAPIEKTISKAKGQPREPQVYTLPPSRCELTKNQVSLSCAVKGFYPSDIAVEWESNGQPENNYKTTPPVLDSDGSFFLVSKLTVDKSRWQQGNVFSCSVMHEALHNHYTQKSLSLSPDYKDDDDK EPKSSDKTHTCPPCPAPELLGGPSVFLFPPKPKDTLMISRTPEVTCVVVDVSHEDPEVKFNWYVDGVEVHNAKTKPREEQYNSTYRVVSVLTVLHQDWLNGKEYKCKVSNKALPAPIEKTISKAKGQPREPQVCTLPPSRDELTKNQVSLWCLVKGFYPSDIAVEWESNGQPENNYKTTPPVLDSDGSFFLYSKLTVDKSRWQQGNVFSCSVMHEALHNRYTQKSLSLSP	0.23
GLS3000 Y96F one-arm antibody (antibody, human IgG1, kappa, L234A L235A, N297A, name in Kabat numbering) light: DIVMTQSPLSLPVTPGEPASISCRSSQSLVHSNRNTYLHWYQQKPGQAPRLLIYKVSNRFSGVPDRFSGSGSGTDFTLKISRVEAEDVGVYYCGQGTQVPFTFGQGTKLEIKRTVAAPSVFIFPPSDEQLKSGTASVVCLLNNFYPREAKVQWKVDNALQSGNSQESVTEQDSKDSTYSLSSTLTLSKADYEKHKVYACEVTHQGLSSPVTKSFNRGEC heavy: QVQLVESGGGVVQPGRSLRLSCAASGFTFSNAWMHWVRQAPGKGLEWVAQIKAKSNNYATYYAESVKGRFTISRDDSKNSLYLQMNSLKTEDTAVYYCRYVHYGAYYGVDAWGQGTTVTVSSASTKGPSVFPLAPSSKSTSGGTAALGCLVKDYFPEPVTVSWNSGALTSGVHTFPAVLQSSGLYSLSSVVTVPSSSLGTQTYICNVNHKPSNTKVDKKVEPKSCDKTHTCPPCPAPEAAGGPSVFLFPPKPKDTLMISRTPEVTCVVVDVSHEDPEVKFNWYVDGVEVHNAKTKPREEQYASTYRVVSVLTVLHQDWLNGKEYKCKVSNKALPAPIEKTISKAKGQPREPQVYTLPPSRCELTKNQVSLSCAVKGFYPSDIAVEWESNGQPENNYKTTPPVLDSDGSFFLVSKLTVDKSRWQQGNVFSCSVMHEALHNHYTQKSLSLSPDYKDDDDK EPKSSDKTHTCPPCPAPELLGGPSVFLFPPKPKDTLMISRTPEVTCVVVDVSHEDPEVKFNWYVDGVEVHNAKTKPREEQYNSTYRVVSVLTVLHQDWLNGKEYKCKVSNKALPAPIEKTISKAKGQPREPQVCTLPPSRDELTKNQVSLWCLVKGFYPSDIAVEWESNGQPENNYKTTPPVLDSDGSFFLYSKLTVDKSRWQQGNVFSCSVMHEALHNRYTQKSLSLSP	1.17

Each binder was assayed against T2, CD3 epsilon homodimer protein (UniProt P07766 23-126) (assay: SPR (Biacore T200), CD3e homodimer on CM4 chip, antibody as analyte; KD ratio vs unaltered GLS3000;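 note: CD3 epsilon homodimer amine-coupled to the sensor surface, antibodies injected as analyte at 25 °C with HBS-EP+ running buffer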).
T2 construct: also called CD3 (CD3 epsilon)
T2 sequence (P07766 23-126): as the sequence (P07766 23-126) above

Binder	KD ratio to GLS3000
CE115HA000/GLS3000 N53D one-arm antibody (antibody, human IgG1, kappa, L234A L235A, N297A, name in Kabat numbering, one-arm IgG1) heavy: QVQLVESGGGVVQPGRSLRLSCAASGFTFSNAWMHWVRQAPGKGLEWVAQIKAKSNNYATYYAESVKGRFTISRDDSKNSLYLQMNSLKTEDTAVYYCRYVHYGAYYGVDAWGQGTTVTVSSASTKGPSVFPLAPSSKSTSGGTAALGCLVKDYFPEPVTVSWNSGALTSGVHTFPAVLQSSGLYSLSSVVTVPSSSLGTQTYICNVNHKPSNTKVDKKVEPKSCDKTHTCPPCPAPEAAGGPSVFLFPPKPKDTLMISRTPEVTCVVVDVSHEDPEVKFNWYVDGVEVHNAKTKPREEQYASTYRVVSVLTVLHQDWLNGKEYKCKVSNKALPAPIEKTISKAKGQPREPQVYTLPPSRCELTKNQVSLSCAVKGFYPSDIAVEWESNGQPENNYKTTPPVLDSDGSFFLVSKLTVDKSRWQQGNVFSCSVMHEALHNHYTQKSLSLSPDYKDDDDK EPKSSDKTHTCPPCPAPELLGGPSVFLFPPKPKDTLMISRTPEVTCVVVDVSHEDPEVKFNWYVDGVEVHNAKTKPREEQYNSTYRVVSVLTVLHQDWLNGKEYKCKVSNKALPAPIEKTISKAKGQPREPQVCTLPPSRDELTKNQVSLWCLVKGFYPSDIAVEWESNGQPENNYKTTPPVLDSDGSFFLYSKLTVDKSRWQQGNVFSCSVMHEALHNRYTQKSLSLSP light: DIVMTQSPLSLPVTPGEPASISCRSSQSLVHSNRNTYLHWYQQKPGQAPRLLIYKVSDRFSGVPDRFSGSGSGTDFTLKISRVEAEDVGVYYCGQGTQVPYTFGQGTKLEIKRTVAAPSVFIFPPSDEQLKSGTASVVCLLNNFYPREAKVQWKVDNALQSGNSQESVTEQDSKDSTYSLSSTLTLSKADYEKHKVYACEVTHQGLSSPVTKSFNRGEC	2.8 ratio
CE115HA000/GLS3000 F55D one-arm antibody (antibody, human IgG1, kappa, L234A L235A, N297A, name in Kabat numbering, one-arm IgG1) heavy: QVQLVESGGGVVQPGRSLRLSCAASGFTFSNAWMHWVRQAPGKGLEWVAQIKAKSNNYATYYAESVKGRFTISRDDSKNSLYLQMNSLKTEDTAVYYCRYVHYGAYYGVDAWGQGTTVTVSSASTKGPSVFPLAPSSKSTSGGTAALGCLVKDYFPEPVTVSWNSGALTSGVHTFPAVLQSSGLYSLSSVVTVPSSSLGTQTYICNVNHKPSNTKVDKKVEPKSCDKTHTCPPCPAPEAAGGPSVFLFPPKPKDTLMISRTPEVTCVVVDVSHEDPEVKFNWYVDGVEVHNAKTKPREEQYASTYRVVSVLTVLHQDWLNGKEYKCKVSNKALPAPIEKTISKAKGQPREPQVYTLPPSRCELTKNQVSLSCAVKGFYPSDIAVEWESNGQPENNYKTTPPVLDSDGSFFLVSKLTVDKSRWQQGNVFSCSVMHEALHNHYTQKSLSLSPDYKDDDDK EPKSSDKTHTCPPCPAPELLGGPSVFLFPPKPKDTLMISRTPEVTCVVVDVSHEDPEVKFNWYVDGVEVHNAKTKPREEQYNSTYRVVSVLTVLHQDWLNGKEYKCKVSNKALPAPIEKTISKAKGQPREPQVCTLPPSRDELTKNQVSLWCLVKGFYPSDIAVEWESNGQPENNYKTTPPVLDSDGSFFLYSKLTVDKSRWQQGNVFSCSVMHEALHNRYTQKSLSLSP light: DIVMTQSPLSLPVTPGEPASISCRSSQSLVHSNRNTYLHWYQQKPGQAPRLLIYKVSNRDSGVPDRFSGSGSGTDFTLKISRVEAEDVGVYYCGQGTQVPYTFGQGTKLEIKRTVAAPSVFIFPPSDEQLKSGTASVVCLLNNFYPREAKVQWKVDNALQSGNSQESVTEQDSKDSTYSLSSTLTLSKADYEKHKVYACEVTHQGLSSPVTKSFNRGEC	1.02 ratio
